The results in this text go back to paper PMC5739284 (Nature microbiology, 2017).

The target in the assay is GST-His6-LC3B (recombinant) (human, UniProt Q9GZQ8 1-120). The experiment in a line: pull-down.

Take SGGDDDWTHLSSK [synthetic p62 LIR peptide]: the binding result is reported as “binds”.
